Source: publication PMC10933270, “The eukaryotic-like characteristics of small GTPase, roadblock and TRAPPC3 proteins from Asgard archaea” (Communications Biology, 2024)

Legend:
[1] = target: T1, Thor-Rab (Candidatus Thorarchaeota archaeon SMTZ1-45, UniProt A0A135VL07); test: X-ray crystallography, co-crystal without Mg2+ ([…] Å) and soak with Mg2+ ([…] Å); settings: co-crystal 10 mM GTPγS, one copy mixed GDP/GTPγS, second copy full GTPγS; soak of GDP crystal with GTPγS and MgCl2; pH 5.5; nucleotide-binding site
T1 construct: codon-optimized gene in pSY5, N-terminal His8 tag removed by HRV 3C; E. coli expression; naturally lacks the C-terminal cysteine extension; two molecules in the asymmetric unit
T1 sequence (A0A135VL07 1-182): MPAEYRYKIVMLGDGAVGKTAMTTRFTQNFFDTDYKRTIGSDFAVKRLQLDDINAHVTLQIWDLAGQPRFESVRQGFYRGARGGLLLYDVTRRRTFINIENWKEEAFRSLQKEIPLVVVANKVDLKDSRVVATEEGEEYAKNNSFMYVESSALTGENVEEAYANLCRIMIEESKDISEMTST

[2] = target: T1, Thor-Rab; test: phosphate release assay (EnzChek), GTP hydrolysis; assay type: biochemical; settings: 1 mM GTP, 2 mM MgCl2, 20 mM HEPES pH 7.5, 150 mM NaCl, 25 °C, 2 h; no GAP or GEF; heat-denatured control
[3] = target: T2, Rab11B (Homo sapiens, UniProt Q15907); test: phosphate release assay (EnzChek), GTP hydrolysis; assay type: biochemical; settings: 1 mM GTP, 2 mM MgCl2, 20 mM HEPES pH 7.5, 150 mM NaCl, 25 °C, 2 h; no GAP or GEF; heat-denatured control
T2 construct: codon-optimized gene in pSY5, N-terminal His8 tag with HRV 3C site (tag removed); E. coli expression
T2 sequence (Q15907 1-218): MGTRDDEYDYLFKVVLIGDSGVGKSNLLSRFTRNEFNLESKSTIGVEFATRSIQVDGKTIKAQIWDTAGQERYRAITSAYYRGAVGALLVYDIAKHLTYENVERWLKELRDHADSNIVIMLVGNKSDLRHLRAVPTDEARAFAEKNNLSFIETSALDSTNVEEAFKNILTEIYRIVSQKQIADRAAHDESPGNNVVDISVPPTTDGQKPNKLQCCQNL

[4] = target: MKD1-RB, roadblock (RB) protein from Loki MKD1 (Candidatus Prometheoarchaeum syntrophicum strain MK-D1); test: crystal structure; MKD1-RB crystals in 100 mM MES, pH 6.0, 250 mM zinc acetate dihydrate, 6% wt/vol PEG 3000, 20 °C; solved using the Thor-RB structure
[5] = target: Odin-RBLC7, truncated roadblock (RBLC7) protein from Odin LCB_4 (Odinarchaeota LCB_4); test: crystal structure; Odin-RBLC7 crystals in 200 mM MgSO4, 20% PEG 4000, 10% glycerol, 20 °C; molecular replacement with dynein DLRB1 (PDB 3L7H)
[6] = target: SMTZ1-45 Thor-TRAPPC3, TRAPPC3-like protein from Thor SMTZ1-45 (Candidatus Thorarchaeota archaeon SMTZ1-45); test: crystal structure; Thor-TRAPPC3 crystals in 100 mM HEPES, pH 7.5, 250 mM magnesium formate-dihydrate, 18% wt/vol PEG3350, 20 °C; molecular replacement with the AB25 Thor-TRAPPC3 model (7YH2)
[7] = target: Thor-RB, predicted roadblock (RB) protein from Thor SMTZ1-45 (Candidatus Thorarchaeota archaeon SMTZ1-45); test: crystal structure; Thor-RB crystals in 100 mM sodium acetate trihydrate, pH 5.0, 200 mM LiCl, 16% wt/vol PEG 6000, 20 °C; molecular replacement with MglB (PDB 3T1S)

Nc1nc2c(ncn2[C@@H]2O[C@H](COP(=O)(O)OP(=O)(O)OP(O)(O)=S)[C@@H](O)[C@H]2O)c(=O)[nH]1 [GTP-γS]
X-ray crystallography, co-crystal without Mg2+ (1.75 Å) and soak with Mg2+ (1.95) [1]: full occupancy for GTP-γS in the second copy

Nc1nc2c(ncn2[C@@H]2O[C@H](COP(=O)(O)OP(=O)(O)OP(=O)(O)O)[C@@H](O)[C@H]2O)c(=O)[nH]1 [GTP]
phosphate release assay (EnzChek), GTP hydrolysis [2]: SMTZ1-45 Thor-Rab generated similar levels of phosphate in comparison to human Rab11B
phosphate release assay (EnzChek), GTP hydrolysis [3]: The GTPase activity of human Rab11B and SMTZ1-45 Thor-Rab were measured

MKD1-RB, roadblock (RB) protein from Loki MKD1 (natural protein)
stoichiometry N [4]: 2

Odin-RBLC7, truncated roadblock (RBLC7) protein from Odin LCB_4 (natural protein)
stoichiometry N [5]: 2

SMTZ1-45 Thor-TRAPPC3, TRAPPC3-like protein from Thor SMTZ1-45 (natural protein)
stoichiometry N [6]: 2

Thor-RB, predicted roadblock (RB) protein from Thor SMTZ1-45 (natural protein)
stoichiometry N [7]: 2
